# IntAct's records for PubMed 31515488
# B1: Ras-related protein Rab-4A (Homo sapiens), P20338 (parent)
# chain: MSQTAMSETYDFLFKFLVIGNAGTGKSCLLHQFIEKKFKDDSNHTIGVEFGSKIINVGGKYVKLQIWDTAGQERFRSVTRSYYRGAAGALLVYDITSRETYNALTNWLTDARMLASQNIVIILCGNKKDLDADREVTFLEASRFAQENELMFLETSALTGENVEEAFVQCARKILNKIESGELDPERMGSGIQYGDAALRQLRSPRRAQAPNAQECGC
# partner: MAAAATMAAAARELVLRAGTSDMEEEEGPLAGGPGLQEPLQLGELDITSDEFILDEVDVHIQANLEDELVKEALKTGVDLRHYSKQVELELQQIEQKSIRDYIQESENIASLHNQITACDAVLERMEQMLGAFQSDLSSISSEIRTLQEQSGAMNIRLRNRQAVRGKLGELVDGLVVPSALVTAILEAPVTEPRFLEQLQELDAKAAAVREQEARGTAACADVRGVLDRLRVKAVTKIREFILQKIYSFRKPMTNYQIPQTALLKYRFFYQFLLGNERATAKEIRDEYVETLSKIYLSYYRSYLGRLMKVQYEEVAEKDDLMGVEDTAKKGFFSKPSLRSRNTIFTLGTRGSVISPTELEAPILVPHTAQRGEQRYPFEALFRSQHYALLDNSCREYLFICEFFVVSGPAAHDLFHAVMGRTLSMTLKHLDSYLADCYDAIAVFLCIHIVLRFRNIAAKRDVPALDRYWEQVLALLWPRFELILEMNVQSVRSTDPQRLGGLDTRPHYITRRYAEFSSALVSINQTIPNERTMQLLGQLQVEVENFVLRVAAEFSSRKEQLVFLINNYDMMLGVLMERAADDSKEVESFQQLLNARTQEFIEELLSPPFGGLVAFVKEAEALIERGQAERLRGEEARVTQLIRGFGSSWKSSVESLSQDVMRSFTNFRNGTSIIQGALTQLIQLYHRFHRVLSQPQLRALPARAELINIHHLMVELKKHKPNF
# B2: Glycolipid transfer protein (Homo sapiens), Q9NZD2 (parent)
# chain: MALLAEHLLKPLPADKQIETGPFLEAVSHLPPFFDCLGSPVFTPIKADISGNITKIKAVYDTNPAKFRTLQNILEVEKEMYGAEWPKVGATLALMWLKRGLRFIQVFLQSICDGERDENHPNLIRVNATKAYEMALKKYHGWIVQKIFQAALYAAPYKSDFLKALSKGQNVTEEECLEKIRLFLVNYTATIDVIYEMYTQMNAELNYKV
# partner: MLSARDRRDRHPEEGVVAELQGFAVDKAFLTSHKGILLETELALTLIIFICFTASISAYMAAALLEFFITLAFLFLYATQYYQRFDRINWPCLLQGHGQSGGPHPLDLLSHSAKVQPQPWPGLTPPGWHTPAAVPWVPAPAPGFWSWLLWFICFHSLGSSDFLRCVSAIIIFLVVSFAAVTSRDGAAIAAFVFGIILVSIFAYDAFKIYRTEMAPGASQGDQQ
# B3: G protein pathway suppressor 2 (Homo sapiens), Q13227 (parent)
# chain: MPALLERPKLSNAMARALHRHIMMERERKRQEEEEVDKMMEQKMKEEQERRKKKEMEERMSLEETKEQILKLEEKLLALQEEKHQLFLQLKKVLHEEEKRRRKEQSDLTTLTSAAYQQSLTVHTGTHLLSMQGSPGGHNRPGTLMAADRAKQMFGPQVLTTRHYVGSAAAFAGTPEHGQFQGSPGGAYGTAQPPPHYGPTQPAYSPSQQLRAPSAFPAVQYLSQPQPQPYAVHGHFQPTQTGFLQPGGALSLQKQMEHANQQTGFSDSSSLRPMHPQALHPAPGLLASPQLPVQMQPAGKSGFAATSQPGPRLPFIQHSQNPRFYHK
# partner: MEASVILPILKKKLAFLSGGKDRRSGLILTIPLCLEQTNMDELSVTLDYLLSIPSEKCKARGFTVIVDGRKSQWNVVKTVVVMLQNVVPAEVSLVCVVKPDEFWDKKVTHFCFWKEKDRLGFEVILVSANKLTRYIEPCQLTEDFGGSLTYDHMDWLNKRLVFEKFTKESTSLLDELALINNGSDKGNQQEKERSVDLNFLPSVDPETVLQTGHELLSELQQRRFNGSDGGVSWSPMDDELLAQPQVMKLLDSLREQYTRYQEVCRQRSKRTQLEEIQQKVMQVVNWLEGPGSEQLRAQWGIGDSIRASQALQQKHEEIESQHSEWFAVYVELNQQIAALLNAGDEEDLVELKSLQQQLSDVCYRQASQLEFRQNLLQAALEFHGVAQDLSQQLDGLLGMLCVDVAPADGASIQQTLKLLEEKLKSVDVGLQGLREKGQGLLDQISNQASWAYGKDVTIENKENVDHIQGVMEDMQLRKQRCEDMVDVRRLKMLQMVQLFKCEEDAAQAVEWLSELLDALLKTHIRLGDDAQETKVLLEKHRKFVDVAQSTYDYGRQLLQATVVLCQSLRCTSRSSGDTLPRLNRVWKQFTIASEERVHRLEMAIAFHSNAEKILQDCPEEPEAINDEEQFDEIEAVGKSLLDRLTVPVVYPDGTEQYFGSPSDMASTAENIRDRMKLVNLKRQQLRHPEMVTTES
# B4: Splicing factor 45 (Homo sapiens), Q96I25 (parent)
# chain: MSLYDDLGVETSDSKTEGWSKNFKLLQSQLQVKKAALTQAKSQRTKQSTVLAPVIDLKRGGSSDDRQIVDTPPHVAAGLKDPVPSGFSAGEVLIPLADEYDPMFPNDYEKVVKRQREERQRQRELERQKEIEEREKRRKDRHEASGFARRPDPDSDEDEDYERERRKRSMGGAAIAPPTSLVEKDKELPRDFPYEEDSRPRSQSSKAAIPPPVYEEQDRPRSPTGPSNSFLANMGGTVAHKIMQKYGFREGQGLGKHEQGLSTALSVEKTSKRGGKIIVGDATEKDASKKSDSNPLTEILKCPTKVVLLRNMVGAGEVDEDLEVETKEECEKYGKVGKCVIFEIPGAPDDEAVRIFLEFERVESAIKAVVDLNGRYFGGRVVKACFYNLDKFRVLDLAEQV
# partner: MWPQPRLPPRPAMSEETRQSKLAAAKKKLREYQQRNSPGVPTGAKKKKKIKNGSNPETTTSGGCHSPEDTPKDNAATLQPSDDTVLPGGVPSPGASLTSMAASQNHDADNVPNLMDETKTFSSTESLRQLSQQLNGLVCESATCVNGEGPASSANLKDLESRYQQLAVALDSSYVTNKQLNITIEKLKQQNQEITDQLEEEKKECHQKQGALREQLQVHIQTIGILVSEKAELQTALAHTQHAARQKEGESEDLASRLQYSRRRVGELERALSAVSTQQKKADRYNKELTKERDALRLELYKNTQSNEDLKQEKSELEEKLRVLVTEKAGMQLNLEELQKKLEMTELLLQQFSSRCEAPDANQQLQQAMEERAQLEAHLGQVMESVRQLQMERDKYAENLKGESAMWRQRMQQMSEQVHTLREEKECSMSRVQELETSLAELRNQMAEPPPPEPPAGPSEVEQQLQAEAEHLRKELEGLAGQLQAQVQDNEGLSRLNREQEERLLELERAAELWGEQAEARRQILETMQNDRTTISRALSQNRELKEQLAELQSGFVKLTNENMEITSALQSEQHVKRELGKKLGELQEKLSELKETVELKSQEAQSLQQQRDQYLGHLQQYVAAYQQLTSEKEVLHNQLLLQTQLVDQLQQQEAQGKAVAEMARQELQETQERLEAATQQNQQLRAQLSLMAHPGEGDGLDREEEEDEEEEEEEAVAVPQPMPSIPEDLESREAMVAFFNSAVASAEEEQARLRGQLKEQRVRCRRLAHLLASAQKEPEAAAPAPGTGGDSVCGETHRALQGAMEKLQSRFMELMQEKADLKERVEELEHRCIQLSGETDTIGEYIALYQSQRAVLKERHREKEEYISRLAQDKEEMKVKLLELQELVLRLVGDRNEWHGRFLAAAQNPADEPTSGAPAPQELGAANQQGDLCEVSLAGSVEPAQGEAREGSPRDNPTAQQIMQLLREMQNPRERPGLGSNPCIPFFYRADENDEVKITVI
# B5: Protein transport protein (Homo sapiens), Q15437 (parent)
# chain: MATYLEFIQQNEERDGVRFSWNVWPSSRLEATRMVVPLACLLTPLKERPDLPPVQYEPVLCSRPTCKAVLNPLCQVDYRAKLWACNFCFQRNQFPPAYGGISEVNQPAELMPQFSTIEYVIQRGAQSPLIFLYVVDTCLEEDDLQALKESLQMSLSLLPPDALVGLITFGRMVQVHELSCEGISKSYVFRGTKDLTAKQIQDMLGLTKPAMPMQQARPAQPQEHPFASSRFLQPVHKIDMNLTDLLGELQRDPWPVTQGKRPLRSTGVALSIAVGLLEGTFPNTGARIMLFTGGPPTQGPGMVVGDELKIPIRSWHDIEKDNARFMKKATKHYEMLANRTAANGHCIDIYACALDQTGLLEMKCCANLTGGYMVMGDSFNTSLFKQTFQRIFTKDFNGDFRMAFGATLDVKTSRELKIAGAIGPCVSLNVKGPCVSENELGVGGTSQWKICGLDPTSTLGIYFEVVNQHNTPIPQGGRGAIQFVTHYQHSSTQRRIRVTTIARNWADVQSQLRHIEAAFDQEAAAVLMARLGVFRAESEEGPDVLRWLDRQLIRLCQKFGQYNKEDPTSFRLSDSFSLYPQFMFHLRRSPFLQVFNNSPDESSYYRHHFARQDLTQSLIMIQPILYSYSFHGPPEPVLLDSSSILADRILLMDTFFQIVIYLGETIAQWRKAGYQDMPEYENFKHLLQAPLDDAQEILQARFPMPRYINTEHGGSQARFLLSKVNPSQTHNNLYAWGQETGAPILTDDVSLQVFMDHLKKLAVSSAC
# partner: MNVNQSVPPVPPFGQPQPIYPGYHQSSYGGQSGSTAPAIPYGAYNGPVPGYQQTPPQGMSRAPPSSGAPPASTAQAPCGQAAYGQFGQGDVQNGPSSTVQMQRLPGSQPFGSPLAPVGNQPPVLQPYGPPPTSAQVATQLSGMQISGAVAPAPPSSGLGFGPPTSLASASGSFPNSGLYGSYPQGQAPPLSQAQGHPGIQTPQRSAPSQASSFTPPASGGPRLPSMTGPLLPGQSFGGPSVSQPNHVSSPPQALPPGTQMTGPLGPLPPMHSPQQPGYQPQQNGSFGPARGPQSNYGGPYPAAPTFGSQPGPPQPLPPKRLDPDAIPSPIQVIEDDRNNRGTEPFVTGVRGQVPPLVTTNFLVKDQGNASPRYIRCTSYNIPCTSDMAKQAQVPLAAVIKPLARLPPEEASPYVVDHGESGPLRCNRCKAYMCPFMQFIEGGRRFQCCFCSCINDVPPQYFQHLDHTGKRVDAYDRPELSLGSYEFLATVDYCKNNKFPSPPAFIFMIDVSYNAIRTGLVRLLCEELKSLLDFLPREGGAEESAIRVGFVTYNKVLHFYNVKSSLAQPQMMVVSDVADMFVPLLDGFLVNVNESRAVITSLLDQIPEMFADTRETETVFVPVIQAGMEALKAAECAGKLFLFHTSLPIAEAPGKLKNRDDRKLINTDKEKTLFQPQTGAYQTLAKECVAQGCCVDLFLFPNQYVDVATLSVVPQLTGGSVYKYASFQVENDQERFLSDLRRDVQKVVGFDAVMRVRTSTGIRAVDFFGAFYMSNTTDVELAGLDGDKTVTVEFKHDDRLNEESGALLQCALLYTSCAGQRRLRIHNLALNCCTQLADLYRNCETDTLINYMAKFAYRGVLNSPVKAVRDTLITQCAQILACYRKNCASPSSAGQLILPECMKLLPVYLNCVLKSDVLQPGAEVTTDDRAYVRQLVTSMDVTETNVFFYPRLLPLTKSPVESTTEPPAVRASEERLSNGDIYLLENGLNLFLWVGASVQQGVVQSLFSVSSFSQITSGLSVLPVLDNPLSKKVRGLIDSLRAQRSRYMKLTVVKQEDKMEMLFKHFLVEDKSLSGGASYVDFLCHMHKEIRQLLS
# Variants of: B1
# Settings: with vps52_human VPS52, Q8N1B4
row,effect of a mutation on the interaction,Variant
1,with no effect,R207H

# Variants of: B2
# Settings: with cklf5_human CMTM5, Q96DZ9
row,effect of a mutation on the interaction,Variant
1,with no effect,R68Q
2,with no effect,R116Q

# Variants of: B3
# Settings: with sesd1_human SESTD1, Q86VW0
row,effect of a mutation on the interaction,Variant
1,with no effect,A215T

# Variants of: B4
# Settings: with goga2_human GOLGA2, Q08379
row,effect of a mutation on the interaction,Variant
1,with no effect,T224I

# Variants of: B5
# Settings: with sc24c_human SEC24C
row,effect of a mutation on the interaction,Variant
1,with no effect,V426I
